± gives the standard deviation of the averaged measurements.
B1: library; a variant is named by its letters at N, in order (parent)
chain: GCUGUCACCGGUGCUUGGUACGUUAUAUUCAGCCGGUCUGAUGAGUCUNNNNNNAGACGAAACAGC
B2: library; a variant is named by its letters at N, in order (parent)
chain: GCUGUCACCGAGAAACUGUGAAGUAUAUCUUAAACCUGGGCACUUAAAAGAUAUAUGGAGUUAGUAGUGCAACCUGCUCGGUCUGAUGAGUCCNNNNNNGGACGAAACAGC

Tests used:
(6R,S)-folinic acid [1] = variants of: B1; assay: normalized RNA/DNA level without ligand (relative to sTRSVctl = 100) (log10 (% of sTRSVctl)); HEK293T overexpressing SLC46A1; higher = less ribozyme self-cleavage, higher mRNA level; conditions: without (6R,S)-folinic acid; ligand present: no
In short: (§1)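 Library plasmids carrying ribozyme switches linked to mCherry, or to eGFP in some ligand experiments, were transfected into HEK293T at 4 µg per 6-well well, with any ligand added 1 h earlier. Seventy-two hours on, total RNA was extracted with EDTA and reverse-transcribed, amplified, barcoded and sequenced. RNA level was RNA over DNA reads normalized to a spiked-in non-cleaving sequence or to the top sequences, then scaled and log-transformed. The top set was 25 sequences, the transform was ×100 and log10, and sequences needed ≥100 DNA reads.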

(6R,S)-folinic acid [2] = variants of: B1; assay: normalized RNA/DNA level with ligand (relative to sTRSVctl = 100) (log10 (% of sTRSVctl)); HEK293T overexpressing SLC46A1; ligand concentration (+) RNA-Seq: 6 mM; higher = less ribozyme self-cleavage, higher mRNA level; conditions: with (6R,S)-folinic acid; ligand present: yes
In short: as §1

cyclic di-GMP [3] = variants of: B2; assay: FACS-Seq fitted mean relative fluorescence mCherry/BFP without ligand (log10 relative fluorescence); HEK293T; ligand: cyclic di-GMP (c-di-GMP-II aptamer); higher = higher reporter protein expression; conditions: ligand present: no
Description: (§2)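 Hammerhead (sTRSV) ribozyme switch libraries with a ligand aptamer grafted on stem I and a randomized N4-6 loop II, cloned into the 3' UTR of mCherry and transiently transfected into HEK293T cells; RNA-Seq 72 h post transfection with ligand added 1 h before transfection; RNA read count / plasmid DNA read count normalized to the non-cleaving sTRSVctl (x100), log10; sequences with >100 DNA reads. FACS-Seq: lentiviral library sorted into 6 bins after 48 h ligand, log-normal fit mean of mCherry/BFP scaled to controls. Printed sequences are partial switch sequences.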

cyclic di-GMP [4] = variants of: B2; assay: normalized RNA/DNA level without ligand (relative to sTRSVctl = 100) (log10 (% of sTRSVctl)); HEK293T; ligand: cyclic di-GMP (c-di-GMP-II aptamer); higher = less ribozyme self-cleavage, higher mRNA level; conditions: reporter: mCherry (pCS4076), ligand present: no
Description: as §2

cyclic di-GMP [5] = variants of: B2; assay: FACS-Seq fitted mean relative fluorescence mCherry/BFP with ligand (log10 relative fluorescence); HEK293T; ligand: cyclic di-GMP (c-di-GMP-II aptamer); ligand concentration (+) FACS-Seq: 1 mM; higher = higher reporter protein expression; conditions: ligand present: yes
Description: as §2

cyclic di-GMP [6] = variants of: B2; assay: normalized RNA/DNA level with ligand (relative to sTRSVctl = 100) (log10 (% of sTRSVctl)); HEK293T; ligand: cyclic di-GMP (c-di-GMP-II aptamer); ligand concentration (+) RNA-Seq: 1 mM; higher = less ribozyme self-cleavage, higher mRNA level; conditions: reporter: mCherry (pCS4076), ligand present: yes
Description: as §2

| Variant | normalized RNA/DNA level without ligand (log10) ((6R,S)-folinic acid [1]) | normalized RNA/DNA level with ligand (log10) ((6R,S)-folinic acid [2]) | FACS-Seq fitted mean (log10) (cyclic di-GMP [3]) | normalized RNA/DNA level without ligand (log10) (cyclic di-GMP [4]) | FACS-Seq fitted mean (log10) (cyclic di-GMP [5]) | normalized RNA/DNA level with ligand (log10) (cyclic di-GMP [6]) |
| --- | --- | --- | --- | --- | --- | --- |
| CUUGCC | 2.03 ± 0.0023 | 2 ± 0.064 | – | – | – | – |
| AUUGCA | 1.976 ± 0.0096 | 1.98 ± 0.05 | – | – | – | – |
| AUUGCU | 2.015 ± 0.0026 | 1.979 ± 0.012 | – | – | – | – |
| AUUGCC | 2.02 ± 0.029 | 2.02 ± 0.055 | – | – | – | – |
| UUUCGC | 2.01 ± 0.016 | 2 ± 0.011 | – | – | – | – |
| UUUCGG | 1.9984 ± 0.00042 | 1.99 ± 0.022 | – | – | – | – |
| UUUCGA | 2.0498 ± 0.00034 | 2.04 ± 0.024 | – | – | – | – |
| UUUCGU | 1.98 ± 0.017 | 2.01 ± 0.012 | – | – | – | – |
| GUUCGU | 1.998 ± 0.019 | 2.01 ± 0.035 | – | – | – | – |
| GUUCGA | 2.018 ± 0.0029 | 2.001 ± 0.015 | – | – | – | – |
| UUUUCC | 2.02 ± 0.022 | 2 ± 0.032 | – | – | – | – |
| UUUUCU | 2.012 ± 0.011 | 2.01 ± 0.038 | – | – | – | – |
| UUUUCA | 2.018 ± 0.011 | 2.02 ± 0.041 | – | – | – | – |
| UUUUCG | 1.87 ± 0.018 | 1.998 ± 0.0083 | – | – | – | – |
| AUGUUU | 1.976 ± 0.015 | 2.004 ± 0.011 | – | – | – | – |
| AUGUUC | 2.0332 ± 0.0018 | 2.01 ± 0.021 | – | – | – | – |
| AUGUUG | 1.889 ± 0.01 | 2.017 ± 0.019 | – | – | – | – |
| AUGUUA | 1.938 ± 1.9e-05 | 1.98 ± 0.057 | – | – | – | – |
| AUUUAG | 1.949 ± 0.013 | 2.01 ± 0.026 | – | – | – | – |
| AUUUAA | 1.953 ± 0.013 | 1.99 ± 0.059 | – | – | – | – |
| AUUCUG | 1.94 ± 0.011 | 1.99 ± 0.043 | – | – | – | – |
| AUUCUA | 2.005 ± 0.0047 | 1.999 ± 0.01 | – | – | – | – |
| AUUCUU | 2.02 ± 0.027 | 2.04 ± 0.023 | – | – | – | – |
| AUUCUC | 2.072 ± 0.012 | 2.04 ± 0.042 | – | – | – | – |
| AUUGAC | 1.99 ± 0.016 | 1.97 ± 0.046 | – | – | – | – |
| AUUGAU | 1.93 ± 0.0058 | 2.01 ± 0.036 | – | – | – | – |
| AAAGGG | – | – | -0.506 ± 0.051 | 1.37 ± 0.078 | -0.2804 ± 0.00041 | 1.59 ± 0.077 |
| GACUUA | – | – | -0.438 ± 0.043 | 1.5846 ± 6e-05 | -0.219 ± 0.05 | 1.76 ± 0.1 |

— the supplement of paper PMC6757056
